B1: peptide HD2 (from tick evasin EVA4) / CCL4 (biotinylated, synthetic) (parent complex)
chain 1: EEDDYTAYAPLTCYFT
chain 2: APMGSDPPTACCFSYTARKLPRNFVVDYYETSSLCSQPAVVFQTKRSKQVCADPSESWVQEYVYDLELN

Variants of: B1

Row | Variant | enrichment
1 | chain 1 E1Q | -0.262 log2 (difference from the parental peptide)
2 | chain 1 P10Y | -7.13 log2 (difference from the parental peptide)
3 | chain 1 P10Q | -4.96 log2 (difference from the parental peptide)
4 | chain 1 P10D | -2.89 log2 (difference from the parental peptide)
5 | chain 1 P10T | -7.43 log2 (difference from the parental peptide)
6 | chain 1 P10E | -4.88 log2 (difference from the parental peptide)
7 | chain 1 P10G | -6.62 log2 (difference from the parental peptide)
8 | chain 1 T12Y | 2.43 log2 (difference from the parental peptide)
9 | chain 1 T12E | -1.15 log2 (difference from the parental peptide)
10 | chain 1 T12N | 1.46 log2 (difference from the parental peptide)
11 | chain 1 T12D | -0.0833 log2 (difference from the parental peptide)
12 | chain 1 Y5M | -3.3 log2 (difference from the parental peptide)
13 | chain 1 Y5E | -2.05 log2 (difference from the parental peptide)
14 | chain 1 Y5C | -8.73 log2 (difference from the parental peptide)
15 | chain 1 Y5V | -5.67 log2 (difference from the parental peptide)
16 | chain 1 Y5P | -6.3 log2 (difference from the parental peptide)
17 | chain 1 Y5H | -5.89 log2 (difference from the parental peptide)
18 | chain 1 Y5T | -4.65 log2 (difference from the parental peptide)
19 | chain 1 Y5F | 0.426 log2 (difference from the parental peptide)
20 | chain 1 Y5R | -5.62 log2 (difference from the parental peptide)
21 | chain 1 Y5S | -5.86 log2 (difference from the parental peptide)
22 | chain 1 T6N | 1.16 log2 (difference from the parental peptide)
23 | chain 1 T6R | -0.342 log2 (difference from the parental peptide)
24 | chain 1 T6L | -2.59 log2 (difference from the parental peptide)
25 | chain 1 T6V | -3.51 log2 (difference from the parental peptide)

Row | Variant | enrichment
26 | chain 1 T6S | 2.87 log2 (difference from the parental peptide)
27 | chain 1 T6E | 2.94 log2 (difference from the parental peptide)
28 | chain 1 T6Q | 0.872 log2 (difference from the parental peptide)
29 | chain 1 T6W | 0.361 log2 (difference from the parental peptide)
30 | chain 1 T6G | 2.91 log2 (difference from the parental peptide)
31 | chain 1 A7K | 1.68 log2 (difference from the parental peptide)
32 | chain 1 A7V | -1.76 log2 (difference from the parental peptide)
33 | chain 1 A7D | 1.81 log2 (difference from the parental peptide)
34 | chain 1 A7F | -2.35 log2 (difference from the parental peptide)
35 | chain 1 A7G | 0.187 log2 (difference from the parental peptide)
36 | chain 1 A7P | 1.22 log2 (difference from the parental peptide)
37 | chain 1 A7L | -0.0909 log2 (difference from the parental peptide)
38 | chain 1 A7I | -0.497 log2 (difference from the parental peptide)
39 | chain 1 A7T | -0.191 log2 (difference from the parental peptide)
40 | chain 1 A7M | 2.06 log2 (difference from the parental peptide)
41 | chain 1 A7Q | 2.27 log2 (difference from the parental peptide)
42 | chain 1 Y8W | -0.806 log2 (difference from the parental peptide)
43 | chain 1 Y8P | -0.864 log2 (difference from the parental peptide)
44 | chain 1 Y8S | -2.96 log2 (difference from the parental peptide)
45 | chain 1 Y8I | -7.37 log2 (difference from the parental peptide)
46 | chain 1 Y8A | -1.67 log2 (difference from the parental peptide)
47 | chain 1 Y8E | -5.75 log2 (difference from the parental peptide)
48 | chain 1 Y8T | -6.05 log2 (difference from the parental peptide)
49 | chain 1 Y8N | -2.94 log2 (difference from the parental peptide)
50 | chain 1 Y8L | -7.61 log2 (difference from the parental peptide)

Row | Variant | enrichment
51 | chain 1 Y8F | 0.697 log2 (difference from the parental peptide)
52 | chain 1 A9Q | -0.79 log2 (difference from the parental peptide)
53 | chain 1 A9E | 0.657 log2 (difference from the parental peptide)
54 | chain 1 A9Y | -5.65 log2 (difference from the parental peptide)
55 | chain 1 A9W | -3.72 log2 (difference from the parental peptide)
56 | chain 1 A9R | -1.96 log2 (difference from the parental peptide)
57 | chain 1 A9F | -6.63 log2 (difference from the parental peptide)
58 | chain 1 A9P | -7.37 log2 (difference from the parental peptide)
59 | chain 1 A9K | -3.61 log2 (difference from the parental peptide)
60 | chain 1 A9S | -0.615 log2 (difference from the parental peptide)
61 | chain 1 A9H | -6.2 log2 (difference from the parental peptide)
62 | chain 1 A9G | -5.26 log2 (difference from the parental peptide)
63 | chain 1 A9T | -2.45 log2 (difference from the parental peptide)
64 | chain 1 A9I | -7.98 log2 (difference from the parental peptide)
65 | chain 1 A9L | -6 log2 (difference from the parental peptide)
66 | chain 1 A9N | -4.06 log2 (difference from the parental peptide)
67 | chain 1 D4N | -2.63 log2 (difference from the parental peptide)
68 | chain 1 D4L | -3.89 log2 (difference from the parental peptide)
69 | chain 1 D4K | -5.45 log2 (difference from the parental peptide)
70 | chain 1 D4P | -1.94 log2 (difference from the parental peptide)
71 | chain 1 D4G | -4.2 log2 (difference from the parental peptide)
72 | chain 1 D4Y | -0.805 log2 (difference from the parental peptide)
73 | chain 1 D4V | -4.25 log2 (difference from the parental peptide)
74 | chain 1 D4A | -3.33 log2 (difference from the parental peptide)
75 | chain 1 D4S | -3.38 log2 (difference from the parental peptide)
